We go through one substance from publication PMC12685063.

This assay deals with Shigella flexneri LptDE complex (SfLptDE), His6 tag on LptE (Shigella flexneri). Description: SEC. In general terms: SEC sorts molecules by how far they enter the pores of the column.

Consider “receptor binding protein (RBP) of the small siphophage Oekolampad (bas018) (natural protein)”, for which the percent RBP (Oeko) binding (complex formation after 48 h, band densitometry against LptE) fell in the range of 15 to 35%.
